# Substitutions are numbered along the chain they refer to.
# B1: PR302309-1 (antibody, human IgG1, kappa, V domains shown)
# VH: QIQLVQSGPELKKPGETVKISCKASGYTFTNYGMNWVKQAPGKVLKWMGWINTYTGEPIYTDDFKGRFAFSLETSASTAYLQINNLKNEDTATYFCSRSTMITTGGVFAYWGQGTLVTVSA
# VL: DVVMTQSPLSLPVTLGQPASISCRSSQTIVHSDGNTYLEWFQQRPGQSPRRLIYKVSNRFSGVPDRFSGSGSGTDFTLKISRVEAEDVGVYYCFQGSHVPWTFGGGTKVEIKR
# B2: PR302309-5 (antibody, human IgG1, kappa, V domains shown)
# VH: B1 VH
# VL: B1 VL with V2I, S7T, L11S, F41L, S48P, R51L, S72A
# B3: PR302309-3 (antibody, human IgG1, kappa, V domains shown)
# VH: B1 VH
# VL: B1 VL with V2I, S7T, P12S, L15P, F41Y, Q42L, R44K, R50Q, R51L
# B4: PR302309-4 (antibody, human IgG1, kappa, V domains shown)
# VH: B1 VH
# VL: B1 VL with S7T, P12S, L15P, F41Y, Q42L, R44K, R50Q, R51L, V88L
# B5: PR302309-2 (antibody, human IgG1, kappa, V domains shown)
# VH: B1 VH
# VL: B1 VL with F41Y, R51L, V88L
# B6: PR302341-25 (antibody, human IgG1, kappa, V domains shown)
# VH: QVQLVQSGAEVKKPGASVKVSCKASGYTFTDYFMKWVRQAPGQRLEWMGVINPNNGDIFYNQKFKGRVTITVDKSASTAYMELSSLRSEDTAVYYCARGTDRALFAYWGQGTLVTVSS
# VL: DVVMTQTPLSLSVTPGQPASISCRSGQSIVHSDGNTYLEWYLQKPGQSPQLLIYKVSNRFSGVPDRFSGSGSGTDFTLKISRVEAEDLGVYYCFQGSHIPWTFGGGTKVEIKR
# B7: PR302341-18 (antibody, human IgG1, kappa, V domains shown)
# VH: B6 VH with R44G, I70M, A76I, S85R, E89D
# VL: DVLMTQTPLSLPVSLGDQASISCRSGQSIVHSDGNTYLEWYLQRPGQSPRLLIYKVSNRFSGVPDRFSGSGSGTDFTLKISRVGAEDLGIYYCFQGSHIPWTFGGGTKLEVKR
# B8: PR302341-17 (antibody, human IgG1, kappa, V domains shown)
# VH: B6 VH with R44G, I70M, V72R, K74T, A76I, S85R, E89D
# VL: B7 VL
# B9: PR302341-23 (antibody, human IgG1, kappa, V domains shown)
# VH: B6 VH with R44G, I70M, A76I, S85R, E89D
# VL: B1 VL with S26G, T28S, F41Y, R51L, V88L, V99I
# B10: PR302341-22 (antibody, human IgG1, kappa, V domains shown)
# VH: B6 VH with R44G, I70M, V72R, K74T, A76I, S85R, E89D
# VL: B1 VL with S26G, T28S, F41Y, R51L, V88L, V99I
# B11: PR302341-27 (antibody, human IgG1, kappa, V domains shown)
# VH: B6 VH with R44G, I70M, A76I, S85R, E89D
# VL: B6 VL
# B12: PR302341-26 (antibody, human IgG1, kappa, V domains shown)
# VH: B6 VH with R44G, I70M, A76I, S85R, E89D
# VL: B6 VL with L11S, S12P, P15L, L42Q, K44R, S48P, Q50R, S72A
# B13: PR302334-1 (antibody, human IgG1, kappa, V domains shown)
# VH: EVKLVESGGGLVKPGGSLKLSCAASGFTFSTYAMSWVRQTPEKRLEWVASIRSGGTTYYPDSVKGRFTISRDNARNILYLQMSSLRSEDTAIYYCTRGIDWGQGTLVTVSA
# VL: EIVMTQSPATLSVSPGERATLSCKASQSVNNDVAWYQQKPGQAPRLLIYYASNRYTGIPARFSGSGSGTEFTLTISSLQSEDFAVYYCQQDYSSWTFGGGTKVEIKR
# B14: PR302334-3 (antibody, human IgG1, kappa, V domains shown)
# VH: B13 VH
# VL: DIVMTQSPDSLAVSLGERATINCKASQSVNNDVAWYQQKPGQPPRLLIYYASNRYTGVPDRFSGSGSGTDFTLTISSLQAEDVAVYYCQQDYSSWTFGGGTKVEIKR
# B15: PR302334-2 (antibody, human IgG1, kappa, V domains shown)
# VH: B13 VH
# VL: B13 VL with F83L, Y87F
# B16: PR302334-4 (antibody, human IgG1, kappa, V domains shown)
# VH: B13 VH
# VL: B14 VL with V83L, Y87F
# B17: PR302334-27 (antibody, human IgG1, kappa, V domains shown)
# VH: EVQLVESGGGLVQPGGSLRLSCAASGFTFSTYAMSWVRQAPGKGLEWVASIRSGGTTYYPDSVKGRFTISRDNSKNSLYLQMNSLRAEDTAVYYCTRGIDWGQGTTVTVSS
# VL: DIQMTQSSLSASVSLGDRVTITCKASQSVNNDVAWYQQKPGKAPRLLIYYASNRYTGVPSRFSGSGSGTDFTFTISSLQPEDLATYFCQQDYSSWTFGGGTKVEIKR
# B18: PR302334-14 (antibody, human IgG1, kappa, V domains shown)
# VH: B17 VH with S77T
# VL: NIVMTQTPKFLLVSAGDRITITCKASQSVNNDVAWYQQKPGQSPKLLIYYASNRYTGVPDRFTGSGYGTDFTFTISTVQAEDLAVYFCQQDYSSWTFGGGTNLEIKR
# B19: PR302334-15 (antibody, human IgG1, kappa, V domains shown)
# VH: B17 VH with Q13K, A49S, S74A, T96A
# VL: B18 VL
# B20: PR302334-17 (antibody, human IgG1, kappa, V domains shown)
# VH: B17 VH with A49S, T96A
# VL: B18 VL
# B21: PR302334-25 (antibody, human IgG1, kappa, V domains shown)
# VH: B17 VH with Q13K, S74A
# VL: B17 VL
# B22: PR302334-8 (antibody, human IgG1, kappa, V domains shown)
# VH: B17 VH with S77T
# VL: B13 VL with F83L, Y87F
# B23: PR302334-11 (antibody, human IgG1, kappa, V domains shown)
# VH: B17 VH with S77T
# VL: B17 VL with L83I, F87Y
# B24: PR302334-24 (antibody, human IgG1, kappa, V domains shown)
# VH: B17 VH with Q13K, S74A
# VL: B14 VL with V83L, Y87F
# B25: PR302334-10 (antibody, human IgG1, kappa, V domains shown)
# VH: B17 VH with S77T
# VL: B14 VL with V83L, Y87F
# B26: PR302334-5 (antibody, human IgG1, kappa, V domains shown)
# VH: B13 VH
# VL: B17 VL with L83I, F87Y
# B27: PR302334-16 (antibody, human IgG1, kappa, V domains shown)
# VH: B17 VH with Q13K, S74A
# VL: B18 VL
# B28: PR302334-6 (antibody, human IgG1, kappa, V domains shown)
# VH: B13 VH
# VL: B17 VL
# B29: PR302334-12 (antibody, human IgG1, kappa, V domains shown)
# VH: B17 VH with S77T
# VL: B17 VL
# B30: PR302334-18 (antibody, human IgG1, kappa, V domains shown)
# VH: B17 VH
# VL: B18 VL
# B31: PR302334-9 (antibody, human IgG1, kappa, V domains shown)
# VH: B17 VH with S77T
# VL: B14 VL
# B32: PR302334-22 (antibody, human IgG1, kappa, V domains shown)
# VH: B17 VH with A49S, T96A
# VL: B13 VL with F83L, Y87F
# B33: PR302334-7 (antibody, human IgG1, kappa, V domains shown)
# VH: B17 VH with S77T
# VL: B13 VL
# Target: T1, corticotropin-releasing hormone (CRH) peptide (human and mouse, UniProt P01143 145-185 (rat entry), not fully specified)
# T1 peptide: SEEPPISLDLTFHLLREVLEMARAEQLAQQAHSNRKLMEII
# Assay: cell-based or functional assay
row,Binder,hCRHR1-Luc 0.5 nM CRH IC50 [nM]
1,B1,4.42
2,B2,0.454
3,B3,2.22
4,B4,1.26
5,B5,0.773

# Target: T1, corticotropin-releasing hormone (CRH) …
# Assay: cell-based or functional assay
# Remark: another data set of the same source
row,Binder,hCRHR1-Luc 0.5 nM CRH IC50 [nM]
1,B6,0.711
2,B7,0.169
3,B8,0.104
4,B9,0.043
5,B10,0.243
6,B11,0.518
7,B12,0.273

# Target: T1, corticotropin-releasing hormone (CRH) …
# Assay: cell-based or functional assay
# Remark: another data set of the same source
row,Binder,hCRHR1-Luc 0.5 nM CRH IC50 [nM]
1,B13,0.624
2,B14,0.542
3,B15,0.597
4,B16,0.553
5,B17,1.36
6,B18,0.468
7,B19,5.12
8,B20,12.2
9,B21,1.7
10,B22,0.816
11,B23,1
12,B24,0.778
13,B25,0.839
14,B26,0.325
15,B27,0.339
16,B28,0.404
17,B29,0.986
18,B30,0.279
19,B31,1.42
20,B32,0.92
21,B33,0.996

# — patent US20250197490A1 (HBM ALPHA THERAPEUTICS, published 2025)
